According to the nanobody polyreactivity screen of Harvey et al. (2022):

Assay: yeast display, Sf9 membrane polyspecificity reagent, FACS + sequencing; frameworks hold sequencing errors
Summary of the method: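 Genes from sorted yeast were amplified by colony PCR, read by MiSeq 2 × 250 sequencing and filtered on CDR length. These cells carried a synthetic nanobody library in Saccharomyces cerevisiae BJ5465 and were sorted by FACS into low and high (top ~1%) gates on anti-HA and streptavidin fluorescence. Polyreactivity is labelled according to the gate of origin.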

Sequence | polyreactivity (PSR sort gate)
QVQLVESGGGLVQAGGSLRLSCAASGRTFSSYAMGWYRQAPGKERELVAAINSGGSTNYADSVKGRFTISRDNAKNTVYLQMNSLKPEDTAVYYCNAVTFWGLGYDYWGQGTQVTVSS | low polyreactivity
QVQLVESGGGLVQAGGSLRLSCAASGRTFSSYAMGWYRQAPGKERELVAAISWSGGRTYYADSVKGRFTISRDNAKNTVYLQMNSLKPEDTAVYYCAAEGDKRKYWYLYDYWGQGTQVTVSS | high polyreactivity
QVQLVESGGGLVQAGGSLRLSCAASGRTFSSYAMGWYRQEPGKERELVARINSDGGRTYYADSVKGRFTISRDNAKNTVYLQMNSLKPEDTAVYYCAKRVVRGKVDYWGQGTQVTVSS | low polyreactivity
QVQLVESGGGLVQAGGSLRLSCAASGRTFSTNDMGWYRQAPGKERELVAAIDFDSDSTYYADSVKGRFTISRDNAKNTVYLQMNSMKPEDTAVYYCAAQYFSYGESYEYWGQGTQVTVSS | low polyreactivity
QVQLVESGGGLVQAGGSLRLSCAASGRTFSTYAMGWYRQAPGKERELVATIRGSGSSTYYADSVKGRFTISRDNAKNTVYLQMNSLKPEDTAVYYCAKDNNRWRYLRYGSWGQGTQVTVSS | high polyreactivity
QVQLVESGGGLVQAGGSLRLSCAASGRTFSTYAMGWYRQSPGKERELVAAITWRGASTYYADSVKGRFTISRDYAKNTVYLQMNSLKPEDTAVYYCATDAPDRTDSDSGFDAGYDYWGQGTQVTLSS | low polyreactivity
QVQLVESGGGLVQAGGSLRLSCAASGRTFSVNAMGWYRQAPGKERELVAAISSGGGTNYADSVKGRFTISRDNAKNNVYLQMNSLKPEDTAVYYCAARTFGYPSHRKEMEYWGQGTQVTVSS | low polyreactivity
QVQLVESGGGLVQAGGSLRLSCAASGRTFSVNAMGWYRQAPGKERELVAAISWDGGSTYYADSVKGRFTISRDNAKNTDYLQMNSLKPEDTAVYYCNKDLYYAYDYWRQGTQVTVSS | low polyreactivity
QVQLVESGGGLVQAGGSLRLSCAASGRTFSVNAMGWYRQAPGKERELVAAISWSTGSTYYADSVKGRFTISRDNAKNTVYLQMNSLKPEDTAVYYCAKLYEYRRSRYRTYGYWGQGTQVTVSS | high polyreactivity
QVQLVESGGGLVQAGGSLRLSCAASGRTFSVYAMGWYRQAPGKERELVAGITSGGSTNYADSVKGRFTISRDNAKNTVYLQMNSLKPEDTAVYYCAAEDDSSTPEFDYWGQGTQVTVSS | low polyreactivity
QVQLVESGGGLVQAGGSLRLSCAASGRTFSVYDMGWYRQAPGKERELVARIRSGGSTYYADSVKGRFTISRDNAKNTVYLQMNSLKPEDTAVYYCAADGFASRWYAYYYWGQGTQVTVSS | high polyreactivity
QVQLVESGGGLVQAGGSLRLSCAASGRTFSYNAMGWYRQAPGKERELVAAITWRGSTTYYADSVKGRFTISRDNAKNTVYLQMNSLKPEDTAVYYCAADTGQPYILDYWGQGTQVTVSS | low polyreactivity
QVQLVESGGGLVQAGGSLRLSCAASGRTFSYYAIGWYRQAPGTERELVAGISYSGGTTYYADSVKGRFTISRDNAKNTVYLQMNSLKPEDTAVYYCATRYWTFSGYDYWGQGTQVTVSS | low polyreactivity
QVQLVESGGGLVQAGGSLRLSCAASGRTFSYYAMGWYREAPGNERELVAAITTGGRTYYADSVKGRFTISRDNAKNTVYLQMNSLKPEDTAVYYCAADYTVSYPYYEYYYWGQGTQVTVSS | high polyreactivity
QVQLVESGGGLVQAGGSLRLSCAASGRTFSYYAMGWYRQAPGKERELVAAISSGGSTYYADSVKGRFTISRDNAKNTVYLQMNSLKTEVSEVYYCAKSYYRYQVSSRMYYRGQGTQVTVSS | high polyreactivity
QVQLVESGGGLVQAGGSLRLSCAASGRTFSYYAMGWYRQAPGKERELVAAIYRAGRTNYADSVKGRFTISRDNAKNNVYLQMHSLKPEDTAVYYCAADLAYGRPFVSYRTRACGQGTQVTVSS | high polyreactivity
QVQLVESGGGLVQAGGSLRLSCAASGRTFSYYAMGWYRQAPGKERELVATISWSGSTYYADSVKGRFTLSRDNAKNTVYLQMNSLKPEDTAVYYCAARYRYAGWYSVWYDYWGQGTQVSVSS | high polyreactivity
QVQLVESGGGLVQAGGSLRLSCAASGRTFSYYAMGWYRQAPGKERELVAVISVSGGSTYYADSVKGRFTISRDNAKNTVYLQMNSLKPEDTAVYYCNVDLYYGYDYWGQGTQVTVSS | low polyreactivity
QVQLVESGGGLVQAGGSLRLSCAASGRTFSYYTMGWDRQAPGKERELVASITSDSSTNYADSVKGRFTISRDNAKNTVYLQMNSLKPEHTAVYYCAADHWIAPRRDYWGQGTQVTVSS | low polyreactivity
QVQLVESGGGLVQAGGSLRLSCAASGRTFTEYAMGWYSQAHGKERELVARISIGDSTYYADSVKGRFTISRDNAKNTVYLQMNSLKPEDTAVFYCNAEYSRSYRYDEGYWGQGTQVTVSS | low polyreactivity
QVQLVESGGGLVQAGGSLRLSCAASGRTFTFKAMGWYRQAPGKERELVAAMTSTGSTSYADSVKGRFTISRDNAKNTVYLQMNSLKPEDTAVYYCAKGYVIPYVHHVRPYGGEYLGQGTQVTVSS | low polyreactivity
QVQLVESGGGLVQAGGSLRLSCAASGRTFTFYTMGCYRQSPGKERELVAAITRSGGGTYYADSVKGRFTISRDNAKNTVYLQMNSLKPEDTAVYYCAAYNRNAFHWGQGTQVTVSS | high polyreactivity

Sequence | polyreactivity (PSR sort gate)
QVQLVESGGGLVQAGGSLRLSCAASGRTFTGYAMGWYRQAPGKERELVAAISASGGSTYYADSVKGRFTISRDIAKNTVYFQMNSLKPEDTAVYYCAAETWYSVLWEEGYDYWGQGTQVTVSS | low polyreactivity
QVQLVESGGGLVQAGGSLRLSCAASGRTFTGYAMGWYRQAPGKERELVASISGSGGRTNYADSVKGRFTISRDNAKNTVYLQMNSLKPEDTAVYYCNARAHSYRKSSYIYLPYSYDYWGQGTQVTVSS | high polyreactivity
QVQLVESGGGLVQAGGSLRLSCAASGRTFTGYAMGWYRQAPGKERELVASISSRGGSTYYADSVKGRFTISRDNAKNTVYLQMNSLKPEDTAVYYCAADSVRHTYSWWYAVDYWGQGTQVTVSS | high polyreactivity
QVQLVESGGGLVQAGGSLRLSCAASGRTFTHNAMGWYRQAPGKERELVAGITSGGSTNYADSVKGRFTISRDNAKNTVYLQMNSLKPEDTAVYYCNKVFFWSRYKGYYYWGQGTQVTVSS | high polyreactivity
QVQLVESGGGLVQAGGSLRLSCAASGRTFTHYAMGWYRQAPGKERELVAAISWSGGRTYYADSVKGRFTISRDNAKNTVYLQMNSLKPEDTAVYYCAADAFRGFYWGQGTQVTVSS | high polyreactivity
QVQLVESGGGLVQAGGSLRLSCAASGRTFTKYAMGWYRQAPGKERELVAAISRSGGSSYYADSAPGRFTISRDNAKNTVYLQMNSLKPEDTAVYYCAARGQYRYSFGDYSWGQGTQVTVSS | high polyreactivity
QVQLVESGGGLVQAGGSLRLSCAASGRTFTLNAMGWYRQAPGKEREFVAAISNSGVRTYYADSVKGRFTISRDNAKNTVYLQMNSLKPEDTAVYYCARTYQVGDSIDDYWGQGTQVTVSS | low polyreactivity
QVQLVESGGGLVQAGGSLRLSCAASGRTFTLNAMGWYRQAPGKERELVATISRRGGSTYYADSVKGRFTISRDNAKNTVYLQMNSLKPEDTAVYYCNVDRLGQRYDYWGQGTQVTVSS | low polyreactivity
QVQLVESGGGLVQAGGSLRLSCAASGRTFTNYAMGWYRQAPGKERELVAAISKRGGTTYYADSVKGRFTISRDNAKNTVYLQMNSLKPEDTAVYYCNKAKTAYRGQYDYWGQGTQVTVSS | high polyreactivity
QVQLVESGGGLVQAGGSLRLSCAASGRTFTQNAMGWYRQAPAKERELVAAISKSGDRTYYADSVKGRFTISRDNAKNTVYLQMNSLKPEDTAVYYCAADTYVSYYWWQTEDDYWGQGTQVTVSS | high polyreactivity
QVQLVESGGGLVQAGGSLRLSCAASGRTFTQYAMGWYRQAPGKEREFVAAINFSGSRTYYADSVKGRFTISRDNAKNTVYLQMNSLKPEDTAVYYCNKRGSVYTSSQRQHDYWGQGTQVTVSS | low polyreactivity
QVQLVESGGGLVQAGGSLRLSCAASGRTFTQYAMGWYRQAPGKERELVAAISWRGGSTYYADSVKGRFTISRDNAKNTVYLQMNSLKPEDTAVYYCAKRYFRGYPLYDYWGQGTQVTVSS | high polyreactivity
QVQLVESGGGLVQAGGSLRLSCAASGRTFTRYAMGWYRQAPGKERELVAAISRGGNTNYADSVKGLFTISRDNAKNTVYLQMNSLKPEDTAVYYCARVYGGYSVPSAYGSWGQGTQVTVSS | high polyreactivity
QVQLVESGGGLVQAGGSLRLSCAASGRTFTSYAMGWYRQAPGKERELVAAISSSGSSTYYADSVKGRFTISRDNAKNTVYLQMNSLKPEDTAVYYCAVGGSFRYRVQYDYWGQGTQVTVSS | high polyreactivity
QVQLVESGGGLVQAGGSLRLSCAASGRTFTSYVMGWYRQAPGKERELVAAISWSGDSTYYADSVKGRFTISRDNAKNTVYLQMNSLKPEDTAVDYCARVPPAAYVAYDYWGQGTQVTVSS | high polyreactivity
QVQLVESGGGLVQAGGSLRLSCAASGRTFTVYAMGWYRQAPGKEREFVATISRSGGSTYYADSVKGRFTISRDNAKNTVYLQMNSLKPEDTAVYYCAARRSGRKYDYWGQGTQVTVSS | high polyreactivity
QVQLVESGGGLVQAGGSLRLSCAASGRTFTWYAMGWYRQAPGKERELVAAITNGGRRYADSVKGRFTISRDNAKTTVYLQMNSLKPEDTAVYYCATQPLTWSSYRWDWRAQFDHWGQGTQVTVSS | low polyreactivity
QVQLVESGGGLVQAGGSLRLSCAASGRTFTYNAMGWYRQAPGKDRELVARISFSGSSTYYADSVKGRFTISRDNAKNTVYLQMNSLKPEDTAVYYCATEAPYYIGGRYRYQRYDYWGQGTQVTVSS | high polyreactivity
QVQLVESGGGLVQAGGSLRLSCAASGRTFTYNMGWYRQAPGKERELVAANDLRRLCEGALHNFTRQCDEYRLFTDEQPETGRYPVYYCNADPAWIWYTFDYWGQGTQVTVSS | low polyreactivity
QVQLVESGGGLVQAGGSLRLSCAASGRTFTYYAMGWYIQAPGKEREFVASISLSGGRTYYADSVKGRFTISRDNAKNTVYLQMNSLKPEDTAVYYCNAYYPRVDRYDYWGQGTQVTVSS | low polyreactivity
QVQLVESGGGLVQAGGSLRLSCAASGRTFTYYAMGWYRPAPGKERELVASISTTGRTYYADSVKGRFTISRDNAKNTVYLQMNSLKPEDTAVYYCATRSRYYYDYWGQGTQVTVSS | high polyreactivity
